The source of these data is article doi:10.64898/2025.12.11.693820, “DNA binding and lesion recognition by the bacterial interstrand DNA crosslink glycosylase AlkX”.

In the series the target is AbaAlkX Y300F (Acinetobacter baumannii, UniProt A0A0D5YK62 1-385, Y300F;V301L). In words: EMSA; 10 nM DNA; binding unaffected relative to WT. To be noted: protein: recombinant; tags: His6-SUMO tag cleaved (3C); label: Cy5 on strand 1; FAM on strand 2 (both printed at 5' end); blunt; covalently crosslinked strands.

B1: 2F-NM8-ICL DNA (dsDNA)
DNA 1: TTTATTTTTATTTGACTTTTATTTTT
DNA 2: AAAAATAAAAGTCAAATAAAAATAAA
Consider B1, for which the binding result is listed as “binds”.
